The data set concerns the target cGAS (Homo sapiens, UniProt Q8N884 1-522). In words: EMSA. For orientation: A gel shift assay detects complexes by their altered migration in electrophoresis.

Chain of cGAS (Q8N884 whole entry): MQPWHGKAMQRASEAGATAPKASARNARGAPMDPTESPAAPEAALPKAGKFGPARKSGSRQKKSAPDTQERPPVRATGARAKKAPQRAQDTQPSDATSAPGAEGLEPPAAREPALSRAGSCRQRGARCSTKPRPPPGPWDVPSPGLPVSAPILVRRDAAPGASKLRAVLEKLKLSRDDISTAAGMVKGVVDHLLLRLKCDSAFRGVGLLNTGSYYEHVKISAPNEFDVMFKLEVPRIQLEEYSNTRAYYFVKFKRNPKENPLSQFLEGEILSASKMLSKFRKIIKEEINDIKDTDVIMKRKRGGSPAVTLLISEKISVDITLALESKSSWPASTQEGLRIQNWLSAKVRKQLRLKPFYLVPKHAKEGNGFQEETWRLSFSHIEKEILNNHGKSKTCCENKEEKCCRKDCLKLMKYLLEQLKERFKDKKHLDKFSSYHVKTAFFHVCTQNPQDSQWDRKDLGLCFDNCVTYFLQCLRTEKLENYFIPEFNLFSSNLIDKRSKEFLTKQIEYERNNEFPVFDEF

B1: 70bp Oligo 2 (dsDNA)
DNA 1: GGCAAGCAGGCCTTCTCATGCGTATATCAACGTGTCCGTTTGAGATATCAGTGTTCTCTTTCCCGGTTAA
DNA 2: TTAACCGGGAAAGAGAACACTGATATCTCAAACGGACACGTTGATATACGCATGAGAAGGCCTGCTTGCC
Regarding B1, the binding result is recorded as “binds”.

Source of the values: paper doi:10.1101/2024.03.08.584184.
